The term Kd denotes the constant that tells how readily two partners part at equilibrium.

Experiment [1] concerns the target recombinant NCS-1 (not myristoylated) (UniProt P62166 1-190, biotin (EZ-Link NHS-PEG4-biotin) where bound to the streptavidin sensor). The experiment in a line: BLI. (In general: In BLI a coated tip is dipped into the sample, and binding shifts an interference pattern.)
Experiment [2] has as its target T1, SID2p peptide (APOL1 G332-L392, WT) (human).
T1 peptide: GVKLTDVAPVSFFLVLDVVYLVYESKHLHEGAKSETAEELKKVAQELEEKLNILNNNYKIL
The experiment in a line: SPR. (In general: Surface plasmon resonance follows binding to a sensor surface in real time, without labels.)

Sequence of recombinant NCS-1 (not myristoylated) (P62166 whole entry): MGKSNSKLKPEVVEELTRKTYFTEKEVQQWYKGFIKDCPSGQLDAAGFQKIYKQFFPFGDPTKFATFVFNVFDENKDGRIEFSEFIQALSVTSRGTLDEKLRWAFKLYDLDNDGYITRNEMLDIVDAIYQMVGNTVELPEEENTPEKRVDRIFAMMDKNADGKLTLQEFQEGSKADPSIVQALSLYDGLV

B1: recombinant APOL3 (natural protein)
chain: MDSEKKRFTEEATKYFRERVSPVHLQILLTNNEAWKRFVTAAELPRDEADALYEALKKLRTYAAIEDEYVQQKDEQFREWFLKEFPQVKRKIQESIEKLRALANGIEEVHRGCTISNVVSSSTGAASGIMSLAGLVLAPFTAGTSLALTAAGVGLGAASAVTGITTSIVEHSYTSSAEAEASRLTATSIDRLKVFKEVMRDITPNLLSLLNNYYEATQTIGSEIRAIRQARARARLPVTTWRISAGSGGQAERTIAGTTRAVSRGARILSATTSGIFLALDVVNLVYESKHLHEGAKSASAEELRRQAQELEENLMELTQIYQRLNPCHTH
modifications: biotin (EZ-Link NHS-PEG4-biotin), only where APOL3 was the bound partner (Figure 5A)
Consider B1, for which the Kd in experiment [1] was determined as 36.5 ± 2.6 nM.

B2: LZ1p peptide (APOL1 L88-K125) (peptide)
peptide: LTDNEAWNGFVAAAELPRNEADELRKALDNLARQMIMK
As to B2, in experiment [2], the binding result is listed as “binds”.

The values are drawn from publication PMC7090385 (Cell Reports, 2020).
